The record followed here is publication PMC3274541 (2012).

The experiment concerns the target T1, GST-AIPL1 (Homo sapiens (Human), UniProt Q9NZN9).
T1 chain: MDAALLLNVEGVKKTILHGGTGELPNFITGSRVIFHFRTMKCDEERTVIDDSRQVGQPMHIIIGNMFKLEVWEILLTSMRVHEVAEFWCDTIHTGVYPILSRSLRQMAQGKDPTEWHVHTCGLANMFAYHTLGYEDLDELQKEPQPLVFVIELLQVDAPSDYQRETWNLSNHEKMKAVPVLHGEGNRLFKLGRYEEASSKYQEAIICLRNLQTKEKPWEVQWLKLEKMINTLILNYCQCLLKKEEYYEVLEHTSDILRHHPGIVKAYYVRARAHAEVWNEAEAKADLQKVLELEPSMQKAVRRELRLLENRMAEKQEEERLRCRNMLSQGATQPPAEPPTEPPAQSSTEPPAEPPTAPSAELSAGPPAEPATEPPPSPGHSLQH
In words: GST pull-down.

B1: His6-FAT10, recombinant purified (protein)
chain: MAPNASCLCVHVRSEEWDLMTFDANPYDSVKKIKEHVRSKTKVPVQDQVLLLGSKILKPRRSLSSYGIDKEKTIHLTLKVVKPSDEELPLFLVESGDEAKRHLLQVRRSSSVAQVKAMIETKTGIIPETQIVTCNGKRLEDGKMMADYGIRKGNLLFLACYCIGG
For the molecule B1, the binding result is given as “binds”.
